Assay results from patent US20060029601A1 (E R SQUIBB AND SONS L L C, published 2006).

Key:
[1] = target: T1, human interferon alpha receptor 1 (IFNAR-1) on cells (Daudi, U937, human peripheral blood mononuclear cells) (human, UniProt P17181 28-557); assay: cell-based or functional assay
T1 sequence (looked up): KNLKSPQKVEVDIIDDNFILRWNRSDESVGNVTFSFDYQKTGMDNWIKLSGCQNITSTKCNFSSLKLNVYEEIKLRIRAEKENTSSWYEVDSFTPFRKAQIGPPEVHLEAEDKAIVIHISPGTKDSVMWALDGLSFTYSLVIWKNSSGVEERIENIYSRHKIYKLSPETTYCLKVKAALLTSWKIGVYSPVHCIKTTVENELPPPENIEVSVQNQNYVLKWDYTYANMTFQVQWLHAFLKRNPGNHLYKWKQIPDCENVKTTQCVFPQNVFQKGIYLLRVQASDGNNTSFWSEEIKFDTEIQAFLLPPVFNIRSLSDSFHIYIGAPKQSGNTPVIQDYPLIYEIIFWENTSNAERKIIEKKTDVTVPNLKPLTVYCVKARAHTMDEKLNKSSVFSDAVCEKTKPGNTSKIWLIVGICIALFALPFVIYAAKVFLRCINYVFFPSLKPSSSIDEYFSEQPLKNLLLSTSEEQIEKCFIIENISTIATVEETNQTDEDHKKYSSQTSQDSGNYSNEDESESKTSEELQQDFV

[2] = target: T1, human interferon alpha receptor 1 …; assay: cell-based or functional assay; remark: listed apart in the source
[3] = target: T2, soluble CHO-derived human IFNAR-1 (human, UniProt P17181 28-436); assay: cross-competition ELISA on plate-coated soluble CHO-derived human IFNAR-1; titrated antibody against 64G12 at 0.3 ug/mL as competitor, detected with anti-mouse IgG (Fc) peroxidase, O.D. 415 nm
T2 construct: extracellular domain; also called soluble IFNAR-1
T2 sequence (looked up): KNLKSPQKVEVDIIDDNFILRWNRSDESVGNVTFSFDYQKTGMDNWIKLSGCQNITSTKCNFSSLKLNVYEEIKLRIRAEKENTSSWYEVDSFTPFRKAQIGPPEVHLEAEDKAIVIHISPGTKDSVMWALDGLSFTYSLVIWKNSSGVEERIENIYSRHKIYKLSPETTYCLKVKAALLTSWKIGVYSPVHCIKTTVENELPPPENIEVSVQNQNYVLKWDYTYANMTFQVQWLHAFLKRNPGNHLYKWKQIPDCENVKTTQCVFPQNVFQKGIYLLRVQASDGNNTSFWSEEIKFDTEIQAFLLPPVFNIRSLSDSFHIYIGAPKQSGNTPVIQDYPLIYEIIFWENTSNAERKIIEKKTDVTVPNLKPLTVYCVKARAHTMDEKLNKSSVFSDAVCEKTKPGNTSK

Binder | Cell Proliferation (Daudi) EC50, blocking of IFN alpha 2b [1] [nM] | ISRE-RG Reporter (U937) EC50, blocking of IFN alpha 2b [1] [nM] | Cell Proliferation (Daudi) EC50, blocking of IFN omega [2] [nM] | IC50 (read off the curve) [3] [µg/mL]
murine anti-IFNAR-1 antibody 64G12 (ECACC Deposit No. 92022605) (antibody, V domains shown) VH: QVTLKESGPGILKPSQTLSLTCSFSGFSLSTSGMGIGWIRQPSGKGLEWLAHIWWDDDKYYNPSLKSQLTISRDTSTNQVFLNITSVDTVDTATYYCGRNYYPYDAWFDYWGQGTLVTVS VL: EIVLTQSPTTMAASPGEKITITCSASSSINSNHLHWYQQKPGFSPKVLIYRTSILASGVPTRFSGSGSGTSYSLTIGTMEAEDVATYYCQQGSNIPFTFGSGTELEIKR | 3.1 | 6 | 5.5 | ~0.7
human monoclonal antibody 4G5 (antibody, IgG1, V domains shown) VH: QVQLQQWGAGLLKPSETLSLTCAVYGGSFSNYYWSWIRQPPGKGLEWIGEIILSGSTNYNPSLKSRVTISVDTSKNQFSLNLTSVTAADTAVYYCARESKWGYYFDSWGQGTLVTVSS VL: AIQLTQSPSSLSASVGDRVTITCRATQDISIALVWYQQKPGKAPELLIYDASGLGSGVPSRFSGSGSGTDFTLTISSLQPEDFATYYCQQFNSYPYTFGQGTKLEIK | – | – | 1.4 | –
human monoclonal antibody 11E2 (antibody, IgG1, V domains shown) VH: EVQLVQSGAEVKKPGESLKISCKGSGYIFTNYWIAWVRQMPGKGLESMGIIYPGDSDIRYSPSFQGQVTISADKSITTAYLQWSSLKASDTAMYYCARHDIEGFDYWGRGTLVTVSS VL: EIVLTQSPGTLSLSPGERATLSCRASQSVSSSFFAWYQQKPGQAPRLLIYGASSRATGIPDRLSGSGSGTDFTLTITRLEPEDFAVYYCQQYDSSAITFGQGTRLEIK | – | – | 0.3 | –
human monoclonal antibody 9D4 (antibody, IgG1, V domains shown) VH: EVQLVQSGAEVKKPGESLKISCKGSGYIFTNYWIAWVRQMPGKGLESMGIIYPGDSDIRYSPSFQGQVTISADKSITTAYLQWSSLKASDTAMYYCARHDIEGFDYWGRGTLVTVSS VL: EIVLTQSPGTLSLSPGERATLSCRASQSVSSSFFAWYQQKPGQAPRLLIYGASSRATGIPDRLSGSGSGTDFTLTITRLEPEDFAVYYCQQYDSSAITFGQGTRLEIK | – | – | 0.3 | –
human monoclonal antibody 3F11 (antibody, IgG1, V domains shown) VH: QVQLQQWGAGLLKPSETLSLTCAVYGGSFSGYFWSWIRQPPGKGLEWIGEIDHSGKTNYNPSLKSRVTISVDTSKNQVSLKLSSVTAADTAVYYCARESKYYFGLDVWGQGTTVTVTS VL: AIQLTQSPSSLSASVGDRVTITCRASQGIYSVLAWYQQKPGKTPKLLIYDASRLESGVPSRFSGSGSGTDFTLTISSLQPEDFATYYCQQFNSYITFGQGTRLEIK | 0.3 | 1.2 | 0.6 | –
